Assay results published in article PMC4811699 (Biochemistry, 2016).

Molecular target: the molecule itself
Assay: crystal structure

B1: Methanococcus jannaschii Thi4 (thiazole synthase) (enzyme)
chain: MVNLMNIKDIKLNADETKTTKAILKASFDMWLDIVEADVVIVGAGPSGLTCARYLAKEGFKVVVLERHLAFGGGTWGGGMGFPYIVVEEPADELLREVGIKLIDMGDGYYVADSVEVPAKLAVAAMDAGAKILTGIVVEDLILREDGVAGVVINSYAIERAGLHIDPLTIRSKVVVDATGHEASIVNILVKKNKLEADVPGEKSMWAEKGENALLRNTREVYPNLFVCGMAANASHGGYRMGAIFGGMYLSGKLCAELITEKLKNKE
B1 was tested, and the “stoichiometry N” value was 8.
